Biological target: S. cerevisiae enolase (S. cerevisiae (endogenous in strain R11258)) (UniProt P00925)
Assay: SEC

stoichiometry N: 2
Substance: S. cerevisiae enolase (from UniProt P00925 1-437) (enzyme)

Source: publication PMC3353271
